Measurements as given in US20050112063A1, “Methods for inhibiting vascular permeability” (priority 2002, published 2005).
Entries after “also recorded” stand apart in the source; their conditions may differ.

Key:
Mice [1] = assay: Miles assay (induced vessel permeability); assay type: in vivo
Experimental: One of the problems with angiogenesis-dependent diseases is increased vessel permeability (due to high levels of VPF) which results in edema and loss of proteins. A decrease in vessel permeability is beneficial in those diseases. […] Briefly, a dye, Evans Blue (1% in PBS), was injected i.v. to anesthesized mice. After 10 min, human recombinant VEGF165 (50 ng/50 μl) was injected intradermally into the back skin. Leakage of protein-bound dye was detected as blue spots on the underside of the back skin surrounding the injection site. After 20 min mice were euthanized. Then, the skin was excised, left in formamide for 5 days to be extracted and the solution read at 620 nm. Putative angiogenesis inhibitors such as free and conjugated TNP-470 were injected daily 3 days (30 mg/kg/day) prior to the VEGF challenge. The same was repeated on tumor-bearing mice to evaluate the effect of angiogenesis inhibitors on tumor vessel permeability.

lungs = assay: IL-2 induced pulmonary edema, relative weight of the lungs; assay type: in vivo; conditions: 3 days treatment, edema induced with IL-2 i.m. (FIG. 12)
[2] = system: A2058 human melanoma-bearing mice; assay: Miles assay on tumor-bearing mice (tumor vessel permeability); assay type: in vivo; conditions: 30 mg/kg/day for three days
Experimental: One of the problems with angiogenesis-dependent diseases is increased vessel permeability (due to high levels of VPF) which results in edema and loss of proteins. A decrease in vessel permeability is beneficial in those diseases. We have found, using the Miles assay ([…], et al., Cancer Res, 56:172-181 (1996)), that free and bound TNP-470 block permeability. Briefly, a dye, Evans Blue (1% in PBS), was injected i.v. to anesthesized mice. After 10 min, human recombinant VEGF165 (50 ng/50 μl) was injected intradermally into the back skin. Leakage of protein-bound dye was detected as blue spots on the underside of the back skin surrounding the injection site. After 20 min mice were euthanized. Then, the skin was excised, left in formamide for 5 days to be extracted and the solution read at 620 nm. Putative angiogenesis inhibitors such as free and conjugated TNP-470 were injected daily 3 days (30 mg/kg/day) prior to the VEGF challenge. The same was repeated on tumor-bearing mice to evaluate the effect of angiogenesis inhibitors on tumor vessel permeability.

[3] = system: Bovine adrenal capillary endothelial cells; assay: BCE proliferation assay; assay type: cell-based; conditions: challenged with bFGF, 72 h; data not shown
Experimental: Bovine adrenal capillary endothelial cells were seeded on gelatinized plates (15,000/well). Following 24 h incubation, cells were challenged with free and conjugated TNP-470, and bFGF (1 ng/ml) was added to the medium. Cells were counted after 72 h.

[4] = system: Aortic arches from day-14 chick embryos; assay: Chick aortic ring assay; assay type: cell-based
Experimental: Aortic arches were dissected from day-14 chick embryos and cut into cross-sectional fragments, everted to expose the endothelium, and explanted in Matrigel. When cultured in serum-free MCDB-131 medium, endothelial cells outgrow and three-dimensional vascular channel formation occurred within […]. Free and conjugated TNP-470 were added to the culture.

Nude mice = assay: Evans Blue dye extravasation in skin after intradermal PAF; assay type: in vivo
Experimental: (§1) The antiangiogenic factor (endostatin) was injected intraperitoneally to FVB/NJ mice for 4 days. Immediately after the last injection, mice were anasthesized and received intravenous injection of 100 μl Evans Blue dye (1% in PBS). Subsequently, different amounts of VEGF165, VEGF121 or saline were injected intradermaly. After 20 minutes, mice were sacrificed and skin flap from the back was removed and photographed. Skin samples from the injection sites were excised and incubated in formamide for 5 days in order to extract the dye and O.D. was measured at 620 nm. […] Quantitative analysis of Evans Blue dye extravasation (FIG. 1) confirmed the lower skin capillary permeability of the antiangiogenic factor-treated mice and indicated the weak permeability-inducing effect of VEGF in these mice.
In order to test if the effects of the antiangiogenic factor (endostatin) on vascular permeability is VEGF-specific, we have tested the effects of intradermal injection of platelet-activating factor (PAF) in Nude mice that were previously injected with the antiangiogenic factor and in control mice, as described above. […] Quantitative analysis of Evans Blue dye extravasation (FIG. 2) confirmed the lower skin capillary permeability of the antiangiogenic factor-treated mice compared with control and the lack of PAF-induced hyperpermeability in these mice. […]

[5] = system: Bovine capillary endothelial cells (BCE); assay: In vitro diffusion of FITC-dextran through endothelial cell monolayer (Transwells); assay type: cell-based
Experimental: The effects of the antiangiogenic factor (endostatin) on skin vessel permeability in vivo were tested in an in vitro diffusion model designed to mimic blood vessel permeability. Bovine capillary endothelial cells (BCE) were seeded in collagen coated inserts of “Transwells” and grown to confluence. The antiangiogenic factor was added every 24 hours. Four days later the inserts were washed with BCE culture medium and the following tracers and permeability regulators were added to the inserts. Half of the inserts received 5 mg/ml FITC-labeled dextran 10 kDa and the other half received 5 mg/ml FITC-labeled dextran 70 kDa. In addition, some inserts received 50 ng/ml VEGF165 or 100 nM PAF. Control inserts received BCE culture medium with fluorescent tracers only. The fluorescence in the lower wells was measured after 10, 20, 30, 45 and 60 minutes by transferring the inserts into new wells.
In order to follow the kinetic of the diffusion process, the flow of the tracer was calculated as fluorescent counts per minute (FIGS. 5 and 6). […] In contrast, the flow in control cells was constant and was lower than that observed in PAF and VEGF165-treated cells.

FVB/NJ mice = assay: Evans Blue dye extravasation in skin after intradermal VEGF; assay type: in vivo
Experimental: as §1

Humans = assay: Histamine-induced wheal and flare test in skin; assay type: in vivo; conditions: intradermal histamine
Experimental: Antiangiogenic treatment has entered into clinical trials recently. Molecules that are tested in phase 1 and 2 clinical trials include endostatin, angiostatin, TNP-470, thalidomide, anti-VEGF antibodies, PTK787, SU-5416, SU-6668 and others. […] Mice that received endostatin for several days had lower diffusion of Evans blue from the skin capillaries in response to intradermal VEGF and PAF injection compared with normal mice. The existing test of histamine-induced wheal and flare in skin can be used in order to test bioactivity of endostatin and other antiangiogenic factors. Intradermal injection of histamine leads to the formation of local adema ([…]) due to blood vessel hyperpermiability. […] This test will serve as an early surrogate marker for the bioactivity of endostatin and other antiangiogenic factors and help to determine the treatment's efficiency in individual patients.

[6] = system: Bovine capillary endothelial cells (BCE); assay: Immunostaining of tight junction proteins (β-catenin, occludin, ZO-1); assay type: cell-based
Experimental: Bovine capillary endothelial cells (BCE) were cultured in the presence of 0.2, 0.5 and 2 μg/ml human endostatin for three days. The cells were fixed and immunostained with anti-β-catenin, occludin, and ZO-1 antibodies (Zymed Laboratories, CA). The staining was developed using FITC-conjugated secondary antibodies and visualized under fluorescent microscopy. Immunostaining for β-catenin marked the cell borders and was more intense when two cells contacted each other. […] There was no difference in β-catenin staining between 0.5 and 2.0 μg/ml endostatin. […] Similar results were obtained with ZO-1 immunostaining. […] This is the first documentation of the effects of endostatin on tight junctions that may explain, in part, the mechanism of its antiangiogenic activities. Similar experiments were performed in which BCE were incubated in the presence and absence of 0.5 μg/ml endostatin for 3 days followed by stimulation with PAF for 20 minutes. The cells were fixed and immunostained with anti-α-catenin, occludin, and ZO-1 antibodies (Zymed Laboratories, CA), as described above.

Mice [7] = assay: Swelling of lung tissue in mice injected with micro-encapsulated VEGF-producing cells; assay type: in vivo; conditions: VEGF producing cells together with endostatin producing cells, 5 days
Source text: Dilation of the lung tissue may result in lung dysfunction and development of pulmonary hypertension. Mice injected with micro-encapsulated cells producing VEGF (approximately 0.5×10^6 cells per mouse) developed thickened lung parenchyma 5 days after injection. At a higher magnification we observed generation of several cell layers between the alveoli compared with one layer of cells in mice injected with micro-encapsulated control cells or with micro-encapsulated cells producing endostatin (Endost). […] Moreover, treatment with endostatin reduced the number of cell layers between the alveoli and the lungs of mice that were treated with endostatin appeared similar to control mice. Therefore, endostatin appears to block the swelling of lung tissue and may be used for treatment of pulmonary hypertension.

mice (SCID) = assay: Duration of exposure: Alzet pump, skin vessel permeability with Evans Blue; assay type: in vivo
Experimental: In order to test if continuous exposure to the antiangiogenic factor (endostatin) is required to repress blood vessel permeability, mice (SCID) were anesthetized and “Alzet” pumps loaded with the antiangiogenic factor or saline were implanted intraperitoneally. The pumps release 1 μl the antiangiogenic factor per hour. Skin vessel permeability using Evans Blue dye was performed as described above. Saline and the antiangiogenic factor treated mice were examined 2, 3 and 4 days after pump implantation, as described above (FIG. 3). […] In both groups, PAF injection induced higher vessel permeability than saline injection. […] However, in both groups PAF injection induced higher vessel permeability than saline injection. […] Since the tumor vessels are continuously permeabilized and plasma proteins contained within the tumor support its vascularization the anti-permeability effect of the antiangiogenic factor offers a possible mechanism for its anti-tumor activity.

## O=C1CCC(N2C(=O)c3ccccc3C2=O)C(=O)N1 (centres unmarked) [Thalidomide]
Mice [1]; FIGS. 9A-9D
  vessel permeability: no effect

## CO[C@@H]1[C@H](OC(=O)NC(=O)CCl)CC[C@]2(CO2)[C@H]1[C@@]1(C)O[C@@H]1CC=C(C)C [TNP-470]
lungs
  pulmonary edema (relative weight of the lungs): reduces pulmonary edema
Mice [1]; Miles assay, compared to control (FIGS. 8A-8E)
  VEGF, PAF and histamine-induced vascular leakage: prevents
[2]
  tumor vessel permeability: decreased
[3]
  BCE cell growth: inhibited
[4]
  concentration that showed efficacy (reduced number and length of vascular sprouts): 50 pg/mL

B1: endostatin (protein, UniProt P39060 1572-1754, looked up)
Endostatin: HSHRDFQPVLHLVALNSPLSGGMRGIRGADFQCFQQARAVGLAGTFRAFLSSRLQDLYSIVRRADRAAVPIVNLKDELLFPSWEALFSGSEGPLKPGARIFSFDGKDVLRHPTWPQKSVWHGSDPNGRRLTESYCETWRTEAPSATGQASSLLGGRLLGQSAASCHHAYIVLCIENSFMTASK
modifications: Endostatin
notes: antiangiogenic factor; human endostatin used on BCE cells
Nude mice; intradermal PAF
  PAF-induced vascular permeability: repressed
Nude mice; vs control
  vascular permeability (skin flaps, Evans Blue): inhibits vascular permeability
[5]; 10 kDa and 70 kDa dextrans, vs control cells
  flow of the tracer (fluorescent counts per minute): significant reduced flow; also recorded: lower than that of control cells
[5]; 60 minutes period
  course of tracer flow over time: constant flow
[5]; 4 days pre-treatment, vs control, VEGF165-treated and PAF-treated cells, 10 kDa and 70 kDa dextran
  sum of fluorescent count over 60 minutes: significantly lower fluorescent counts
[5]; pre-treated BCE cells
  reduction in fluorescent counts, 70 kDa compared with 10 kDa dextran: more pronounced in the diffusion of 70 kDa dextran
FVB/NJ mice; injected intraperitoneally for 4 days, vs control
  Evans Blue dye leakage (skin capillary permeability): overall lower dye leakage than the control
FVB/NJ mice; intradermal VEGF165 or VEGF121, 4 days treatment
  induction of hyperpermeability by VEGF injection: minor induction of hyperpermeability
Humans
  histamine-induced zone of edema: reduced zone of edema
[6]; 0.5 μg/ml for 3 days, then PAF for 20 minutes
  PAF-induced reduction of staining intensity of β-catenin, occludin and ZO-1: not in endostatin-treated cells
[6]; 0.2-2.0 μg/ml, three days
  ZO-1 immunostaining: Cells boundaries were only visible in the presence
[6]; three days
  β-catenin staining, 0.5 versus 2.0 μg/ml: no difference
Mice [7]
  accumulation of extracellular matrix in lung tissue: no accumulation of extracellular matrix
  cell layers between the alveoli: fewer cell layers
Mice (SCID); Alzet pump intraperitoneally
  treatment time required to reduce skin vessel permeability: at least 3 days
Mice (SCID); day two after pump implantation
  blood vessel permeability in response to PAF, saline vs treated mice: no significant difference
Mice (SCID); days three and four, saline and PAF injections
  vessel permeability in saline treated mice compared with treated mice: significantly higher vessel permeability than in the antiangiogenic factor treated mice
